Patent US20110189095A1, “CRKL TARGETING PEPTIDES” (The Board of Regents, of the University of Texas System, priority 2008, published 2011)

System: DU145 cells
Experiment: Cell proliferation assay (WST-1)
Assay type: cell-based, human
Conditions: protein added exogenously 48 hours after siRNA transfection
Text: In contrast, CRKL was not detected in control cell media as shown by immunoprecipitation either with anti-CRKL or with several control antibodies. […] Next, studies were undertaken to determine whether the CRKL secretion had any detectable effect(s) on cell proliferation and migration. […] As an additional control, it was shown that the decrease in cell proliferation could be rescued by exogenous CRKL (FIG. 8D) and only background levels of apoptosis (less than 1%) were detected in the CRKL siRNA knockdown cells or in serum-free medium cultured cells.
CRKL (mRNA accession # NM_005207), β1 integrin (mRNA accession # NM_002211), and control siRNAs were purchased (Santa Cruz, Ambion and Dharmacon). siRNA oligonucleotides sequences and corresponding manufacturers are summarized in (Table 3). Oligofectamine (Invitrogen) or DharmaFect (Dharmacon) were used to transfect siRNAs into DU145 cells (1-2×10^5 cells per well). The transfected cells were incubated for 48-72 hours prior to processing. […] Transfected cells were harvested and lysed in the presence of protease inhibitors. The tumor-homing phage binding activity was also examined in the CRKL knockdown cells. For rescue experiments, up to 1.5 μg of recombinant CRKL was exogenously added to CRKL siRNA transfected cells. […]

B1: exogenous CRKL: recombinant His-tag CRKL protein added exogenously (protein)
chain: MSSARFDSSDRSAWYMGPVSRQEAQTRLQGQRHGMFLVRDSSTCPGDYVLSVSENSRVSHYIINSLPNRRFKIGDQEFDHLPALLEFYKIHYLDTTTLIEPAPRYPSPPMGSVSAPNLPTAEDNLEYVRTLYDFPGNDAEDLPFKKGEILVIIEKPEEQWWSARNKDGRVGMIPVPYVEKLVRSSPHGKHGNRNSNSYGIPEPAHAYAQPQTTTPLPAVSGSPGAAITPLPSTQNGPVFAKAIQKRVPCAYDKTALALEVGDIVKVTRMNINGQWEGEVNGRKGLFPFTHVKIFDPQNPDENE
rescue of decrease in cell proliferation in CRKL siRNA knockdown cells: rescued
